{
  "source": "patent US9090686B2",
  "about": "“Antibodies for the treatment of HIV” (Pierre Fabre Medicament, priority 2009, dated 2015)",
  "molecules": {"B1": {"name": "hz515H7 VH1 VL2: humanized VH variant 1 (no back mutations) combined with variant 2 of VL (antibody, V domains shown)", "VH": "EVQLVESGGGLVQPGRSLRLSCTASGFTFTDNYMSWVRQAPGKGLEWVGFIRNKANGYTTEYAASVKGRFTISRDDSKSIAYLQMNSLKTEDTAVYYCARDVGSNYFDYWGQGTLVTVSS", "VL": "DIVMTQSPSSLAVSLGERATMSCKSSQSLFNSRTRKNYLAWYQQKPGQSPKLLIYWASARDSGVPARFTGSGSETYFTLTISRVQAEDLAVYYCMQSFNLRTFGQGTKVEIK"}, "B2": {"name": "hz515H7 VH1 D76N VL2: humanized 515H7 Mab; variable domains VH1 D76N (SEQ ID No. 64) and VL2 (SEQ ID No. 65) (antibody, listed as Mus musculus, V domains shown)", "VH": "B1 VH with D76N", "VL": "B1 VL"}},
  "key": {"[1]": {"target": "T1, human CXCR4 (Homo sapiens, UniProt P61073)", "test": "SDF-1-induced calcium release in CHO-CXCR4 cells", "format": "cell-based", "design": "expressed in transfected cells", "conditions": "SDF-1 100 nM, recombinant CHO/CXCR4, at about 40 sec.", "excerpt": "This functional assay was designed to monitor CXCR4 receptor signaling via stimulation of the phospholipase C pathway, inducing calcium liberation from intracellular stores from the endoplasmic reticulum.\nCHO-K1 cells, stably and constitutively expressing human CXCR4 receptor were obtained upon transfection of naïve CHO-K1 cells (ATCC CCL-61) with a mammalian expression vector carrying the whole coding sequence of human CXCR4 receptor (RefSeq NM_003467). Cells were propagated in complete culture medium [DMEM-Ham's F12 supplemented with 5% fetal calf serum (FCS) and 500 μg/ml of geneticin]. Cells were plated in black 96MW plates at a density of 100,000 cells/well in appropriate culture medium. Cells were starved overnight before conducting the experiments. Cells are loaded with the fluorescent calcium dye (Fluo-4 No Wash, Invitrogen US) in loading buffer [HBSS 1×, HEPES 20 mM, Probenicid acid 25 mM] for 30 min. at 37° C. followed by 30 min. at 25° C. Stimulation by SDF-1 was performed by direct injection into each well. For antagonism experiments, 10 μl of Mab solution are added directly into the loading buffer at least 10 min. before SDF-1. Kinetic fluorescence measurements are performed on a multi-mode fluorescence microplate reader Mithras LB940 (Berthold) using the following settings: excitation at 485 nm, emission at 535 nm, excitation energy at 10000 arbitrary units. Fluorescence in each well is recorded during 0.1 second every second and for a time period of 20 sec. prior SDF-1 injection (basal signal). Then 20 μl of SDF-1 are injected and data recording follows for a time period of 2 min. Each experimental condition is performed in duplicate. Values for each well are first corrected by subtracting the basal fluorescence and the fluorescence emitted by a control well without cells. Relative data are expressed as a percentage of the maximal stimulation obtained by SDF-1 (100 nM)."}, "[2]": {"target": "T2, CXCR4 homodimer (Homo sapiens, UniProt P61073)", "T2 construct": "expressed in transfected cells; host or cells: HEK293, transient transfection", "test": "BRET on HEK293 cells expressing CXCR4/Rluc+CXCR4/YFP", "format": "cell-based", "excerpt": "This functional assay allows to evaluate the conformational changes induced upon SDF-1 and/or 515H7 Mab binding to CXCR4 receptor at the level of CXCR4 homodimer.\n(§1) Expression vectors for the investigated interaction partners were constructed as fusion proteins with the corresponding dye (Renilla reniformis luciferase, Rluc and Yellow fluorescent protein, YFP) by applying conventional molecular biology techniques. Two days prior performing BRET experiments, HEK293 cells were transiently transfected with expression vectors coding for the corresponding BRET partners: [CXCR4/Rluc+CXCR4/YFP] to study CXCR4 homodimerization. The day after, cells were distributed in poly-lysine pre-coated white 96 MW plates in complete culture medium [DMEM supplemented with 10% FBS]. Cells were first cultivated at 37° C. with CO2 5% in order to allow cell attachment to the plate. Cells were then starved with 200 μl DMEM/well overnight Immediately prior to the BRET experiment, DMEM was removed and cells were quickly washed with PBS. Cells were then incubated in PBS in the presence or absence of antibody, 10 min at 37° C. prior to the addition of coelenterazine H 5 μM with or without SDF-1 300 nM in a final volume of 50 μl. After incubation for further 10 minutes at 37° C., light-emission acquisition at 485 nm and 530 nm was initiated using the Mithras LB940 multilabel reader (Berthold) (1 s/wavelength/well repeated 15 times at room temperature).\n(§2) Calculation of BRET ratio was performed as previously described (Angers et al., 2000): [(emission530 nm)−(emission485 nm)×Cf]/(emission485 nm), where Cf=(emission530 nm)/(emission485 nm) for cells expressing the Rluc fusion protein alone under the same experimental conditions. […] For sake of readability, results are expressed in mi11iBRET units (mBU); mBU corresponds to the BRET ratio multiplied by 1000.\nThis functional assay allows to evaluate the conformational changes induced upon SDF-1 and/or c515H7 Mab binding to CXCR4 receptor at the level of CXCR4 homodimer.\nas §1, with “Cells were then incubated in PBS in the presence or absence of antibody, 10 min at 37° C. prior to the addition of coelenterazine H 5 μM with or without SDF-1 300 nM in a final volume of 50 μl.” left out\nas §2, with “milliBRET” for “mi11iBRET”, “1000. […]” for “1000.”"}, "[3]": {"system": "HIV-1 primary isolate 89.6 (dual X4/R5 virus)", "test": "Neutralization assay, multiple rounds of replication on primary PBMC, isolate 89.6", "format": "cell-based", "conditions": "single agent; 90% decrease of viral titer, multiple rounds, day 7 p24 ELISA", "description": "This assay that combines serial dilutions of c515H7 Mab or Maraviroc or combination of both with serial dilutions of virus, analyzes multiple rounds of infection on PBMC (peripheral blood mononuclear cells). Briefly, quadruplicate 25-μl aliquots of serial dilutions (twofold) of c515H7 Mabs or Maraviroc or combination of both were each incubated with 25 μl of serial dilutions of virus in prehydrated 96-well filter plates (1.25-μm pore size, Durapor Dv; Millipore, Molsheim, France). A control titration of the virus (25 μl of RPMI replacing the diluted c515H7 Mabs or Maraviroc) was performed on the same plate as the titrations in the presence of dilutions of the c515H7 Mabs or Maraviroc or combination of both. After 1 h at 37° C., 25 μl of PHA-stimulated PBMC at a concentration of 4×10^6 cells/ml (pool of PHA activated PBMC from five healthy donors) was added to achieve a 75-μl final culture volume of RPMI, 10% fetal calf serum (FCS), and 20 IU of interleukin-2 (IL-2) per ml (R&D System). After 24 h at 37° C., 100 μl of the same culture medium was added. Two washings (200 μl of RPMI each) were performed by filtration on day 4 to remove the c515H7 Mabs and Maraviroc, and 200 μl of fresh culture medium was added. On day 7, the presence of p24 in the culture supernatants was measured by ELISA and compared to that of the negative controls (cultures infected with dilutions of virus and maintained in the presence of 10^−6 M zidovudine [AZT]) to determine positive wells. […]\nThis assay that combines serial dilutions of hz515H7 Mab or Maraviroc or combination of both with serial dilutions of virus, analyzes multiple rounds of infection on PBMC (peripheral blood mononuclear cells). […] On day 7, the presence of p24 in the culture supernatants was measured by ELISA and compared to that of the negative controls (cultures infected with dilutions of virus and maintained in the presence of 10^−6 M zidovudine [AZT]) to determine positive wells. […]"}, "[4]": {"target": "T1, human CXCR4", "test": "Cross blocking of biotinylated murine 515H7 on CXCR4 transfected NIH3T3 cells, flow cytometry", "format": "binding", "design": "expressed in transfected cells; host or cells: NIH3T3 (mouse fibroblasts)", "description": "FIG. 19: Cross blocking of the biotinylated murine antibody 515H7 by the chimeric 515H7 and different variants of the humanized 515H7. The activity of the humanized variants of 515H7 (hz515H7) to cross block the parental murine antibody 515H7 was evaluated by flow cytometry using CXCR4 transfected NIH3T3 cells. The activity of the humanized variants was compared to the chimeric 515H7.\nBinding of humanized variants of 515H7 was determined on a NIH3T3 cell line stably transfected with human CXCR4. The binding activity was evaluated by a competition assay with the biotinylated mouse antibody. In a second attempt, humanized antibodies were evaluated for their ability to inhibit binding of biotinylated SDF-1 to RAMOS cells. RAMOS cells were chosen because of their high expression of CXCR4 and low expression of CXCR7 and SDF-1.\nIn a first series of experiments, the anti-CXCR4 binding activities of the three first humanized variants were analysed. The VH variant 1 (VH1) was combined with the murine VL and these constructs were evaluated in their capacity to inhibit the binding of a biotinylated murine 515H7 parental antibody. The amino acid sequence of the variable domain of VH1 comprises the SEQ ID No. 90 whereas the nucleotide sequence comprises the SEQ ID No. 91. […]"}},
  "note": "Where a chain is given by its changes, count along the chain named. In names and notes the source's numbering stands.",
  "data": [
    {"molecule": "SDF-1: Stromal-cell-Derived Factor-1, the natural ligand of CXCR4 [reference compound]", "values": [
      {"measurement": "maximal intensity of calcium signal", "setting": "[1]", "result": "> 140", "unit": "% over basal fluorescence"},
      {"measurement": "increase of BRET signal", "setting": "[2]; SDF-1 300 nM", "result": "about 20%"}
    ]},
    {"molecule": "Maraviroc [reference compound]", "values": [
      {"measurement": "IC90", "setting": "[3]", "result": "> 50", "unit": "µg/mL"}
    ]},
    {"molecule": "B1", "values": [
      {"measurement": "cross blocking of biotinylated murine 515H7, compared to chimeric 515H7", "setting": "[4]", "result": "No reduction in the activity"}
    ]},
    {"molecule": "B2", "values": [
      {"measurement": "inhibition of SDF-1-induced BRET increase", "setting": "[2]; SDF-1 100 nM", "result": "about 88%"}
    ]}
  ]
}
